Measured values reported in US20120071394A1.

Target: human C5a receptor (C5aR) (human) (UniProt P21730)
Test: cell-based or functional assay

human C5a receptor (C5aR) (human), sequence (P21730 whole entry): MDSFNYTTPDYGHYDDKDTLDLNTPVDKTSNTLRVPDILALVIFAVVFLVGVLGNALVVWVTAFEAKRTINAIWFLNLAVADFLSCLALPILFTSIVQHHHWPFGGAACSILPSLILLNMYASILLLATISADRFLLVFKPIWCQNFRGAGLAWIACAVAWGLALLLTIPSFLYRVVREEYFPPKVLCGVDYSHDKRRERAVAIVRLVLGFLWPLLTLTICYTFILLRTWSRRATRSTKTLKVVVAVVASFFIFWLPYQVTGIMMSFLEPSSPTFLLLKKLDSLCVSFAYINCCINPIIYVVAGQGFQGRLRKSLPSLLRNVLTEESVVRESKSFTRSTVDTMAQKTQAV

Row | Substance | Chemotaxis IC50 | C5aR blocking activity (in neutrophils), % of wt CHIPS1-121 (% of wt CHIPS1-121) | IC50 of inhibition of calcium release, ratio to CHIPS1-121 (fold of the IC50 of CHIPS1-121) | IC50 of inhibition of neutrophil migration towards C5a, ratio to CHIPS1-121 (fold of the IC50 of CHIPS1-121) | concentration needed for 50% inhibition of calcium release (IC50), neutrophils stimulated with C5a
1 | Wild-type CHIPS1-121 (Chemotaxis Inhibitory Protein of Staphylococcus aureus) (from UniProt A6QIG7 29-149) | 8.2 nM |  |  |  | 
2 | ADC-1004 (from UniProt A6QIG7 59-138) | 49 nM | > 50 | 2 | 4 | 0.4 nM
